The assay deals with T1, CLL1 (expressed on K562-CLL1 cells) (human, UniProt Q5QGZ9).
T1 chain: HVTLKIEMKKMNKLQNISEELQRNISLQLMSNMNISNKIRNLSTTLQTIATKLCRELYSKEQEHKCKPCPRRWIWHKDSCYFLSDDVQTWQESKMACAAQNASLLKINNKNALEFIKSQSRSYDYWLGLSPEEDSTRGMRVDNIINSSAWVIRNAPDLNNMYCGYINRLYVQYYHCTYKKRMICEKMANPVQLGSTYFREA
The assay is described as follows: FACS, K562-CLL1 cells, room temperature, bivalent Fc fusion.

B1: CLL1-VHH-16-hFc (antibody)
chain 1: DVQLQESGGGLVQPGGSLRLSCAASGFTFGSYDMTWVRQAPGKGPEWVSGINSGGSSTYYADSVKGRFTISRDNAKNTLYLQMNSLKPEDTAVYYCATIDRLSTVVAGTYQPSEEYDYWGQGTQVTVSS
chain 2: not shown
As for B1, the Kd turned out to be 5 nM.

Source of the values: patent US20260374878 (published 2026).
